Target: recombinant stabilized HA trimer of H1N1 virus A/Solomon Islands/3/2006 (H1 SI06) (influenza A virus A/Solomon Islands/3/2006 (H1N1))
Assay: cryo-EM structure

recombinant stabilized HA trimer of H1N1 virus A/Solomon Islands/3/2006 (H1 SI06) (natural protein)
stoichiometry N: 3

— article PMC9772109
